Measurements: patent US20110110861A1 (WALTER AND ELIZA HALL INSTITUTE OF MEDICAL RESEARCH, published 2011)

T1: mouse 5B6, full length, membrane bound on cells (mouse)
T1 construct: also called m5B6; mClec9A
T1 chain: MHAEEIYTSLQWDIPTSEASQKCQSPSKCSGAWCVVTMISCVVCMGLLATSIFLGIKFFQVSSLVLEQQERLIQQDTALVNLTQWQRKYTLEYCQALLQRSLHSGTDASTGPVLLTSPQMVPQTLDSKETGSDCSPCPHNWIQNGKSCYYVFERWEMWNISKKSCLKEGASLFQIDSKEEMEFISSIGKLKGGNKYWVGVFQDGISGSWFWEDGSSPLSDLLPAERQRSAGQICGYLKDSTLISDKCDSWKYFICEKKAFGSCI

B1: soluble FLAG-tagged human 5B6 (full ectodomain: stalk/hinge and CTLD) (receptor)
chain: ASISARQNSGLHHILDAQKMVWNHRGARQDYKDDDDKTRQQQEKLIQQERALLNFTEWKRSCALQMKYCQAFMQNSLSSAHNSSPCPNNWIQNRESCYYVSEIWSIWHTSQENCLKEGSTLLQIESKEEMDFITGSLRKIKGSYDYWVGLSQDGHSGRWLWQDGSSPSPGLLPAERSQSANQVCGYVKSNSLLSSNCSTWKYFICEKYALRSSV
notes: Built like m1; also called soluble h5B6; soluble human 5B6
B2: soluble FLAG-tagged mouse 5B6 (full ectodomain: stalk/hinge and CTLD) (receptor)
chain: ASISARQNSGLHHILDAQKMVWNHRGARQDYKDDDDKTREQQERLIQQDTALVNLTQWQRKYTLEYCQALLQRSLHSGTDASTGPVLLTSPQMVPQTLDSKETGSDCSPCPHNWIQNGKSCYYVFERWEMWNISKKSCLKEGASLFQIDSKEEMEFISSIGKLKGGNKYWVGVFQDGISGSWFWEDGSSPLSDLLPAERQRSAGQICGYLKDSTLISDKCDSWKYFICEKKAFGSCI
notes: also called soluble m5B6; soluble mouse 5B6

Legend:
[1] = biological target: T1, mouse 5B6, full length, membrane bound …; experiment: flow cytometry on live 293T cells transiently transfected with full length untagged m5B6
Method: (§1) To identify binding partners for the 5B6 molecule, the inventors generated the soluble FLAG-tagged m5B6 and h5B6, and a control soluble FLAG-tagged C-type lectin Cire. […] Thus, soluble 5B6 can interact with membrane bound 5B6 in a cross-species manner.
(§2) Binding assays were performed in binding buffer (PBS containing 0.2% BSA/and 0.02% sodium azide), on ice. Cells were washed 3 times with PBS to remove serum proteins, then resuspended in binding buffer. Cells were incubated with either (1) biotinylated soluble Clec9A and controls, and detected with SA-PE, or (2) soluble FLAG-tagged Clec9A, biotinylated anti-FLAG mAb 9H10, then detected with SA-PE. Live cells were gated on forward and side scatter, or by propidium iodide (PI) exclusion, whereas dead cells were gated on forward and side scatter, or by PI inclusion. Analysis of soluble Clec9A binding was performed by flow cytometry using a FACScan (Becton Dickinson).

[2] = biological target: T2, human 5B6, full length, membrane bound on cells (human, UniProt Q6UXN8 1-241); experiment: flow cytometry on live 293T cells transiently transfected with full length untagged h5B6
T2 construct: also called h5B6; hCLEC9A
Method: as §1, §2

T2 sequence (Q6UXN8 whole entry): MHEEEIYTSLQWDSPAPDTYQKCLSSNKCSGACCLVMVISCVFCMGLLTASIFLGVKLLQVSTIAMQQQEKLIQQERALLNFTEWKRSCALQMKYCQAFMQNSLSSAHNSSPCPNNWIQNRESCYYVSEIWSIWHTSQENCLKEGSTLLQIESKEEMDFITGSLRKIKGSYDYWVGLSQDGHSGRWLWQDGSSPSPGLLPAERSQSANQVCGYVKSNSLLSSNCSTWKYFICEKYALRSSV

| Binder | binding result [1] | binding result [2] |
| --- | --- | --- |
| B1 | binds | binds |
| B2 | binds | binds |
